Measurements reported in the supplement of paper PMC10567573.

B1: FANCE (parent)
chain: AQVLMLGQILELPWKEETFLVLQS
B2: VTI1B (parent)
chain: ANETLAEMEEELRYAPLSFRNPMM

Variants of: B1
Experiment: protein stability index of a GFP-peptide fusion (GPS, HEK-293T) (PSI 1-6); higher = more stable
Conditions: c terminus: a fixed tail appended
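Further: lentivirally expressed fusions sorted by FACS into six bins by GFP to DsRed ratio, PSI derived from sequencing read proportions per bin multiplied by bin number.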

| Variant | protein stability index |
| --- | --- |
| AQVLMLGQILELPWKEETTLVLQS [F19T] | 1.56 |
| AQVLMLGQILELPWKEETRLVLQS [F19R] | 2.1 |
| AQVLMLGQILELPWKEETNLVLQS [F19N] | 2.02 |
| AQVLMLGQILELPWKEETSLVLQS [F19S] | 1.75 |
| AQVLMLGQILELPWKEETWLVLQS [F19W] | 1.88 |
| AQVLMLGQILELPWKEETQLVLQS [F19Q] | 1.51 |
| AQVLMLGQILELPWKEETVLVLQS [F19V] | 2.48 |
| AQVLMLGQILELPWKEETPLVLQS [F19P] | 1.55 |
| AQVLMLGQILELPWKEETYLVLQS [F19Y] | 2.24 |
| AQVLMLGQILELPWKEETFQVLQS [L20Q] | 2.98 |
| AQVLMLGQILELPWKEETFHVLQS [L20H] | 2.03 |
| AQVLMLGQILELPWKEETFVVLQS [L20V] | 3 |
| AQVLMLGQILELPWKEETFGVLQS [L20G] | 1.81 |
| AQVLMLGQILELPWKEETFSVLQS [L20S] | 2.3 |
| AQVLMLGQILELPWKEETFKVLQS [L20K] | 1.91 |
| AQVLMLGQILELPWKEETFRVLQS [L20R] | 2.61 |
| AQVLMLGQILELPWKEETFNVLQS [L20N] | 2.56 |
| AQVLMLGQILELPWKEETFIVLQS [L20I] | 2.31 |
| AQVLMLGQILELPWKEETFEVLQS [L20E] | 2.24 |
| AQVLMLGQILELPWKEETFCVLQS [L20C] | 1.48 |
| AQVLMLGQILELPWKEETFTVLQS [L20T] | 1.76 |
| AQVLMLGQILELPWKEETFYVLQS [L20Y] | 3.73 |
| AQVLMLGQILELPWKEETFMVLQS [L20M] | 1.73 |

| Variant | protein stability index |
| --- | --- |
| AQVLMLGQILELPWKEETFWVLQS [L20W] | 2.87 |
| AQVLMLGQILELPWKEETFDVLQS [L20D] | 1.6 |
| AQVLMLGQILELPWKEETFAVLQS [L20A] | 3.76 |
| AQVLMLGQILELPWKEETFPVLQS [L20P] | 1.94 |
| AQVLMLGQILELPWKEETFLVLQA [S24A] | 1.88 |
| AQVLMLGQILELPWKEETFLVLQY [S24Y] | 2.4 |
| AQVLMLGQILELPWKEETFLVLQG [S24G] | 2.41 |
| AQVLMLGQILELPWKEETFLVLQQ [S24Q] | 1.69 |
| AQVLMLGQILELPWKEETFLVLQH [S24H] | 2.58 |
| AQVLMLGQILELPWKEETFLVLQC [S24C] | 2.6 |
| AQVLMLGQILELPWKEETFLVLQK [S24K] | 2.21 |
| AQVLMLGQILELPWKEETFLVLQF [S24F] | 2.67 |
| AQVLMLGQILELPWKEETFLVLQN [S24N] | 3.35 |
| AQVLMLGQILELPWKEETFLVLQI [S24I] | 5.17 |
| AQVLMLGQILELPWKEETFLVLQL [S24L] | 3.04 |
| AQVLMLGQILELPWKEETFLVLQD [S24D] | 1.83 |
| AQVLMLGQILELPWKEETFLVLQR [S24R] | 2.69 |
| AQVLMLGQILELPWKEETFLVLQE [S24E] | 3.98 |
| AQVLMLGQILELPWKEETFLVLQT [S24T] | 2.51 |
| AQVLMLGQILELPWKEETFLVLQW [S24W] | 3.86 |
| AQVLMLGQILELPWKEETFLSLQS [V21S] | 2.05 |
| AQVLMLGQILELPWKEETFLILQS [V21I] | 2.06 |
| AQVLMLGQILELPWKEETFLPLQS [V21P] | 2.17 |

| Variant | protein stability index |
| --- | --- |
| AQVLMLGQILELPWKEETFLCLQS [V21C] | 3.25 |
| AQVLMLGQILELPWKEETFLFLQS [V21F] | 2.56 |
| AQVLMLGQILELPWKEETFLGLQS [V21G] | 3.02 |
| AQVLMLGQILELPWKEETFLRLQS [V21R] | 3.15 |
| AQVLMLGQILELPWKEETFLNLQS [V21N] | 2.3 |
| AQVLMLGQILELPWKEETFLTLQS [V21T] | 3.45 |
| AQVLMLGQILELPWKEETFLQLQS [V21Q] | 2.54 |
| AQVLMLGQILELPWKEETFLKLQS [V21K] | 2.9 |
| AQVLMLGQILELPWKEETFLDLQS [V21D] | 2.08 |
| AQVLMLGQILELPWKEETFLALQS [V21A] | 3.08 |
| AQVLMLGQILELPWKEETFLHLQS [V21H] | 1.77 |
| AQVLMLGQILELPWKEETFLWLQS [V21W] | 2.4 |
| AQVLMLGQILELPWKEETFLYLQS [V21Y] | 3.3 |
| AQVLMLGQILELPWKEETFLELQS [V21E] | 2.57 |
| AQVLMLGQILELPWKEETFLVKQS [L22K] | 2.14 |
| AQVLMLGQILELPWKEETFLVQQS [L22Q] | 2.08 |
| AQVLMLGQILELPWKEETFLVNQS [L22N] | 1.47 |
| AQVLMLGQILELPWKEETFLVFQS [L22F] | 2.29 |
| AQVLMLGQILELPWKEETFLVEQS [L22E] | 2 |
| AQVLMLGQILELPWKEETFLVHQS [L22H] | 2.08 |
| AQVLMLGQILELPWKEETFLVAQS [L22A] | 2.06 |
| AQVLMLGQILELPWKEETFLVSQS [L22S] | 1.13 |
| AQVLMLGQILELPWKEETFLVWQS [L22W] | 2.86 |

| Variant | protein stability index |
| --- | --- |
| AQVLMLGQILELPWKEETFLVDQS [L22D] | 1.49 |
| AQVLMLGQILELPWKEETFLVRQS [L22R] | 1.63 |
| AQVLMLGQILELPWKEETFLVGQS [L22G] | 3.21 |
| AQVLMLGQILELPWKEETFLVMQS [L22M] | 2.5 |
| AQVLMLGQILELPWKEETFLVVQS [L22V] | 1.7 |
| AQVLMLGQILELPWKEETFLVTQS [L22T] | 1.61 |
| AQVLMLGQILELPWKEETFLVYQS [L22Y] | 2.56 |
| AQVLMLGQILELPWKEETFLVLTS [Q23T] | 2.41 |
| AQVLMLGQILELPWKEETFLVLKS [Q23K] | 3.22 |
| AQVLMLGQILELPWKEETFLVLVS [Q23V] | 2 |
| AQVLMLGQILELPWKEETFLVLWS [Q23W] | 3.42 |
| AQVLMLGQILELPWKEETFLVLNS [Q23N] | 2.44 |
| AQVLMLGQILELPWKEETFLVLFS [Q23F] | 1.91 |
| AQVLMLGQILELPWKEETFLVLYS [Q23Y] | 3.54 |
| AQVLMLGQILELPWKEETFLVLIS [Q23I] | 2.18 |
| AQVLMLGQILELPWKEETFLVLDS [Q23D] | 1.78 |
| AQVLMLGQILELPWKEETFLVLAS [Q23A] | 3.11 |
| AQVLMLGQILELPWKEETFLVLCS [Q23C] | 4.36 |
| AQVLMLGQILELPWKEETFLVLMS [Q23M] | 2.95 |
| AQVLMLGQILELPWKEETFLVLPS [Q23P] | 3.09 |
| AQVLMLGQILELPWKEETFLVLGS [Q23G] | 2.42 |

Variants of: B2
Experiment: as above
Conditions: c terminus: a fixed tail appended

| Variant | protein stability index |
| --- | --- |
| ANETLAEMEEELRYAPDSFRNPMM [L17D] | 4.33 |
| ANETLAEMEEELRYAPSSFRNPMM [L17S] | 2.8 |
| ANETLAEMEEELRYAPMSFRNPMM [L17M] | 3.13 |
| ANETLAEMEEELRYAPRSFRNPMM [L17R] | 2.93 |
